The source of these data is publication doi:10.1101/2025.01.09.632221 (bioRxiv, 2025).

In data set [1] the target is sHcp-His6 (Bacteroides fragilis NCTC9343). The data set can be described thus: SDS-PAGE.
The target is the same in data set [2]. Description: SEC. (Size exclusion chromatography separates by hydrodynamic size, large species first.)
The data set “crystal structure” deals with the molecule itself. Description: crystal structure.
The target in a further data set is T1, Hcp2-His6 (Bacteroides fragilis NCTC9343, UniProt A0A380Z0E1 1-135).
T1 sequence (looked up): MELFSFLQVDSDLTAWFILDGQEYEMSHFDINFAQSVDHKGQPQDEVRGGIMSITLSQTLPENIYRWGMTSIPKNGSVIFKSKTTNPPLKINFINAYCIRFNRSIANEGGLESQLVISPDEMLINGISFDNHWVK
The data set can be described thus: pull-down.

With sHcp-His6 (natural protein), the figures for the stoichiometry N in data set [1] and in data set [2] were 3 and 6, respectively.

B1: C-terminal 6His-tagged Se-Met sHcp protein (natural protein, Bacteroides fragilis NCTC9343)
chain: MAFRATLSFAGKEFDVLDCTYSLKRDVDSKGRPSSNIYGGQIRLHVESTDDTSILENMTNQFKPHSGSIVFKKGDEEAKMKELTWENGYITEFTENIDIVGSQPMTITFVVSAQVIKIGGAQFEQNWPK
modifications: selenomethionine in place of methionine
On to B1, for which, in the data set “crystal structure”, the “stoichiometry N” value was 6.

B2: Hcp1, untagged, co-expressed in E. coli BL21(DE3) (natural protein, Bacteroides fragilis NCTC9343, UniProt Q5LDT5 1-142, looked up)
chain: MFGHKSFLRIGALGDSSISGLYKDSYELENCHFSFNQGTNTDGKPQTDVRGGTLYLTYAGLPQDDMLRWILNSKKYEDGAIVICDDSDEPLEKILFEQAACTGLNIEYTQKGKAYIHTKIILQVRKIKVGETTFENRWTINE
For the molecule B2, in the data set with Hcp2-His6, the “stoichiometry N” value was 2 Hcp1 per Hcp2 (printed as the ratio 4:2).

Usually stoichiometry N stands for the number of molecules, sites or subunits per partner or assembly.
